In patent US20100003195A1 (published 2010):
One block for each binder: values may come before it. Bridge positions count the residues as written; N and C are the ends. Primed or numbered codes have the meaning given here. Ends that are not written are not given here. I, II: the chains in the order shown. * marks the point of attachment. ivDde′ = (4,4-dimethyl-2,6-dioxocyclohex-1-ylidene)-3-methylbutyl protecting group, CC(C)CC(=C1C(=O)CC(C)(C)CC1=O)*

Experiments:
[1] = target: T1, KDR on HUVECs (human, UniProt P35968 20-1356); assay: cell-based or functional assay
T1 sequence (P35968 20-1356): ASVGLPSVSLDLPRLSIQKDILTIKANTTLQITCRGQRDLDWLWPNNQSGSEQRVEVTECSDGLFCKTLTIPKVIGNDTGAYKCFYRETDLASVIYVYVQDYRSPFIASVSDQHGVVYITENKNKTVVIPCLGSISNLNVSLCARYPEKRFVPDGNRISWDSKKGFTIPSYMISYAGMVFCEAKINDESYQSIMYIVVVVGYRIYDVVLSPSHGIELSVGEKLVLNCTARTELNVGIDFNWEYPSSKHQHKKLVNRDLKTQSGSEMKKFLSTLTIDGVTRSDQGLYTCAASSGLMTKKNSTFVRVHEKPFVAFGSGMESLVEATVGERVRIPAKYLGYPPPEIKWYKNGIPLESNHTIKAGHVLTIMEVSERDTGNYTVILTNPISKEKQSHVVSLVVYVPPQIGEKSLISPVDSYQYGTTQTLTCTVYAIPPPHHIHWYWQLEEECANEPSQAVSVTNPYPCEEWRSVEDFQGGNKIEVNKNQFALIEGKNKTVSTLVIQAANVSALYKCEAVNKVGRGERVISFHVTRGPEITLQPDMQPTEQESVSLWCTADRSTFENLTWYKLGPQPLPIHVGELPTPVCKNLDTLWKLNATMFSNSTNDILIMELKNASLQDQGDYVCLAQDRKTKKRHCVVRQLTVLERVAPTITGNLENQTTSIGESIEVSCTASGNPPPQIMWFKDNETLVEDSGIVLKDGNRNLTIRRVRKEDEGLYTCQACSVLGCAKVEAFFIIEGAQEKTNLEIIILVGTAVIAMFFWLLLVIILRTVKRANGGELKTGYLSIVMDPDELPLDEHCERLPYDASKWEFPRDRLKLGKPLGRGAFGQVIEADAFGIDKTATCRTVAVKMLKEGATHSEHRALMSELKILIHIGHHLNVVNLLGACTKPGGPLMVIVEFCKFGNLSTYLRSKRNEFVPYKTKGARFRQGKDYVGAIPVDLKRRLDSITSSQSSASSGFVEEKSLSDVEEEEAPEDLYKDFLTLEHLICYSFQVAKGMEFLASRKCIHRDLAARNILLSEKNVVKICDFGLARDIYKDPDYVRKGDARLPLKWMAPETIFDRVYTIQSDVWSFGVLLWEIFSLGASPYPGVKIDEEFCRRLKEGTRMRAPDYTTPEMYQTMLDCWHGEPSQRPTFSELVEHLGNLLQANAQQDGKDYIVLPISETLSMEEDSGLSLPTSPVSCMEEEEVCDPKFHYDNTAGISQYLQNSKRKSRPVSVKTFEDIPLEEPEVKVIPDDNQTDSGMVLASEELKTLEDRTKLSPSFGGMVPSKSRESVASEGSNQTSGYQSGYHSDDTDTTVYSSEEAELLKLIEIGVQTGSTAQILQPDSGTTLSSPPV

[2] = target: T1, KDR on HUVECs; assay: cell-based or functional assay; remark: listed apart in the source
[3] = target: T2, KDR on KDR-transfected 293H cells (human, UniProt P35968 20-1356); assay: Tc-labeled dimer on KDR- vs mock-transfected 293H cells
T2 construct: whole, on cells; also called KDR-expressing cells; KDR-transfected cells
T2 sequence (P35968 20-1356): as above

[4] = target: T2, KDR on KDR-transfected 293H cells; assay: radioligand binding, 1-4 µCi/mL, KDR- vs mock-transfected 293H cells
[5] = target: T2, KDR on KDR-transfected 293H cells; assay: competitor 125I-VEGF (300 pM), KDR-transfected 293H cells, peptide 0.3 µM
[6] = target: T2, KDR on KDR-transfected 293H cells; assay: competitor 125I-VEGF (300 pM), KDR-transfected 293H cells, peptide 30 µM
[7] = target: T3, human KDR-Fc chimeric fusion (R&D Systems #357-KD-05) (human, UniProt P35968 20-764); assay: BIAcore steady state, KDAV, KDR-Fc at 6000 RU
T3 construct: bought; also called KDR Fc fusion
T3 sequence (P35968 20-764, change not shown): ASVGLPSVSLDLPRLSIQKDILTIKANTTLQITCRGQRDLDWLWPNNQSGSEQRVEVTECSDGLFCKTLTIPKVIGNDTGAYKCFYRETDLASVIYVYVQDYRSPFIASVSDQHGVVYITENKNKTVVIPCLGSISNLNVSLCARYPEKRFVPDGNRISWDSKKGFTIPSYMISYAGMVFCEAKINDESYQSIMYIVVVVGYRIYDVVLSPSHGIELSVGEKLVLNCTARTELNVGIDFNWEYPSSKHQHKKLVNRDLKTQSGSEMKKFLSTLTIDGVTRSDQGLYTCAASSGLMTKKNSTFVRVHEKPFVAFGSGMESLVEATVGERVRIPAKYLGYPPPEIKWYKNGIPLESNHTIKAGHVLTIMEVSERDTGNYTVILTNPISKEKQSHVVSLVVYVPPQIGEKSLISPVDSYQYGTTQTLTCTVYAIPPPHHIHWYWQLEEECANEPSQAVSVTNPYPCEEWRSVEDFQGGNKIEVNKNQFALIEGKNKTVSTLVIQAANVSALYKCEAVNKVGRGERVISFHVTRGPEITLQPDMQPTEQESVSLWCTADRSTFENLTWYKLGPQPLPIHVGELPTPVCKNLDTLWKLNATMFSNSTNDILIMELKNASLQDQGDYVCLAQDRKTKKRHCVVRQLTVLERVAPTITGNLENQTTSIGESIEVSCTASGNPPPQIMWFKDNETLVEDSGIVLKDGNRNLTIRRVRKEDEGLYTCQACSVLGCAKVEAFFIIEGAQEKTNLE
Experimental: (§1) All samples were injected in duplicate. […] Following a 10 minute dissociation, any remaining peptide was stripped from the KDR surface with a quickinject of 50 mM NaOH+1 M NaCl for 12 s at 75 μL/min. Sensorgrams were analyzed using BIAevaluation software 3.1 and a hyperbolic double rectangular regression equation in SigmaPlot 6.0.

[8] = target: T3, human KDR-Fc chimeric fusion (R&D …); assay: BIAcore steady state, KD1, KDR-Fc at 6000 RU
Experimental: as §1

[9] = target: T3, human KDR-Fc chimeric fusion (R&D …); assay: BIAcore steady state, KD1, KDR-Fc at 1600 RU
Experimental: as §1

[10] = target: T3, human KDR-Fc chimeric fusion (R&D …); assay: BIAcore steady state, KDAV, KDR-Fc at 3000 RU
Experimental: as §1

[11] = target: T3, human KDR-Fc chimeric fusion (R&D …); assay: BIAcore steady state, KD1, KDR-Fc at 3000 RU
Experimental: as §1

[12] = target: T3, human KDR-Fc chimeric fusion (R&D …); assay: BIAcore steady state at the higher immobilization densities
Experimental: as §1

[13] = target: T3, human KDR-Fc chimeric fusion (R&D …); assay: BIAcore steady state, KDAV, KDR-Fc at 1600 RU
Experimental: as §1

Binder: Ac-GDPDTCTMWGDSGRWYCFPADPGGGK-NH2 (disulfide 6-17 (inferred); also: fluorescein on C-terminal Lys in FP only) [SEQ ID NO:301]
VEGF-induced KDR phosphorylation, HUVEC immunoblot [1]: ≥ 50 % inhibition at 10 µM

Binder: Ac-AQAFPRFGGDDYWIQQYLRYTDGGK-NH2 (also: fluorescein on C-terminal Lys in FP only) [SEQ ID NO:306]
VEGF-induced KDR phosphorylation, HUVEC immunoblot [1]: ≥ 50 % inhibition at 10 µM

Binder: Ac-AGWIECYHPDGICYHFGTGGGK-NH2 (disulfide 6-13 (inferred); also: fluorescein on C-terminal Lys in FP only) [SEQ ID NO:269]
VEGF-induced KDR phosphorylation, HUVEC immunoblot [1]: ≥ 50 % inhibition at 10 µM

Binder: Ac-AGWLECYAEFGHCYNFGTGGGK-NH2 (disulfide 6-13 (inferred); also: fluorescein on C-terminal Lys in FP only) [SEQ ID NO:267]
VEGF-induced KDR phosphorylation, HUVEC immunoblot [1]: ≥ 50 % inhibition at 10 µM

Binder: Ac-AQEPEGYAYWEVITLYHEEDGDGGK-NH2 (also: fluorescein on C-terminal Lys in FP only) [SEQ ID NO:305]
VEGF-induced KDR phosphorylation, HUVEC immunoblot [1]: ≥ 50 % inhibition at 10 µM

Binder: Ac-AQGDYVYWEIIELTGATDHTPPGGK-NH2 (also: fluorescein on C-terminal Lys in FP only) [SEQ ID NO:307]
VEGF-induced KDR phosphorylation, HUVEC immunoblot [1]: ≥ 50 % inhibition at 10 µM

Binder: Ac-AGPTWCEDDWYYCWLFGTGGGK-NH2 (cysteine pairing not given here; also: fluorescein on C-terminal Lys in FP and) [SEQ ID NO:277]
% inhibition of 125I-labeled VEGF binding [5]: 81% | IC50, receptor activation assay [2]: 0.1 µM | % inhibition of 125I-labeled VEGF binding [6]: 104%

Binder: Ac-GDSRVCWEDSWGGEVCFRYDPGGGK-NH2 (disulfide 6-16 (inferred); also: fluorescein on C-terminal Lys in FP only) [SEQ ID NO:294]
VEGF-induced KDR phosphorylation, HUVEC immunoblot [1]: ≥ 50 % inhibition at 10 µM | % inhibition of 125I-labeled VEGF binding [5]: 52.3% | % inhibition of 125I-labeled VEGF binding [6]: 96.3%

Second part, the binder after the results:

VEGF-induced KDR phosphorylation, HUVEC immunoblot [1]: ≥ 50 % inhibition at 10 µM
Binder: Ac-GDWWECK(ivDde′)REEYRNTTWCAWADPGGGK-NH2 (disulfide 6-17 (inferred)) [SEQ ID NO:366 having a blocked K]

IC50, VEGF-induced HUVEC migration [2]: ~250 nM
B1: dimer 17 (D17) (peptide)
peptide 1: AQDWYYDEILGRGGRGGRGGK
peptide 2: VCWEDSWGGEVCFRYDPGGGK
modifications: not fully specified; N-acetyl; C-terminal Lys(JJ-Glut) amide; N-acetyl; J spacer within the chain

binding result [3]: no binding (tested: up to 10 µCi/mL)
B2: Tc-labeled D18 (scrambled derivative of D10) (peptide)
peptide 1: Ac-APGTWCDYDWEYCWLGTFGGGK-NH2
peptide 2: Ac-GVDFRCEWSDWGEVGCRSPDYGGGK-NH2
modifications: disulfide I:6-I:13, II:6-II:16 (inferred); not fully specified (some residues, bridges); also: 99mTc chelated by PnAO6, J not defined
notes: control; also called dimer 18

binding result [4]: binds
B3: 125I-labeled D5 (peptide)
peptide 1: Ac-VCWEDSWGGEVCFRYDPGGGK-NH2
peptide 2: Ac-AGPTWCEDDWYYCWLFGTGGGK-NH2
modifications: disulfide I:2-I:12, II:6-II:13 (inferred); not fully specified (bridges); also: dimer joined by JJ-glutaryl-Lys linker, 125I Bolton-Hunter label, site not given here
notes: also called dimer 5

Kd [7]: 0.662 nM | Kd [8]: 17 nM | Kd [9]: 46 nM | IC50, VEGF-induced HUVEC migration [2]: ~12.5 nM | Kd [10]: 0.665 nM | Kd [11]: 25.5 nM | Kd [12]: ~0.6 nM | Kd [13]: 1.5 nM
B4: dimer 6 (D6) (peptide)
peptide 1: GDSRVCWEDSWGGEVCFRYDPGGGK
peptide 2: AGPTWCEDDWYYCWLFGTGGGK
modifications: disulfide I:6-I:16, II:6-II:13 (inferred); also: heterodimer made with glutaric acid bis-NHS ester
notes: heterodimer made with glutaric acid bis-NHS ester

IC50, VEGF-induced HUVEC migration [2]: 5 nM
B5: dimer 25 (D25) (peptide)
peptide 1: Ac-AGPTWCEDDWYYCWLFGTGGGK-NH2
peptide 2: Ac-GDSRVCWEDSWGGEVCFRYDPGGGK-NH2
modifications: disulfide I:6-I:13, II:6-II:16 (inferred); not fully specified (bridges); also: dimer joined by JJ-Glut-Lys linker
